Experimental data reported in the nanobody polyreactivity screen of Harvey et al. (2022).

Assay: yeast display, Sf9 membrane polyspecificity reagent, FACS + sequencing; frameworks hold sequencing errors
Summary of the method: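 Nanobodies came from a synthetic yeast display library in Saccharomyces cerevisiae BJ5465, induced with galactose for 36–48 hours and stained for 1 hour at 4 °C with 10% biotinylated, detergent-solubilized Sf9 membrane reagent. Cells were enriched on streptavidin microbeads and then FACS-sorted, with low and high (top ~1%) gates set on anti-HA fluorescence for expression and streptavidin fluorescence for reagent binding. Each polyreactivity label reflects the gate a clone came from. Genes were amplified by colony PCR, sequenced by MiSeq 2 × 250 and filtered by CDR length.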
In the case of “QVQLVESGGGLVQAGGSLRLSCAASGYTFTIYAMGWYRQAPGKERELVASISIDGSTYYADSVKGRFTISRDNAKNTVYLQMNSLKPEDTAVYYCAADYYYYTPGFDYWGQGTQVTVSS”, the “polyreactivity (PSR sort gate)” value is reported as “low polyreactivity”.
For “QVQLVESGGGLVQAGGSLRLSCAASGFTIRWYTMGWYRQAPGKERELVAAISRGGSTNYADSVKGRFTISRDNAKNTVYLQMNSLKPEDTAVYYCNAVRGGRYGLDYWGQGTQVTVSS”, the “polyreactivity (PSR sort gate)” value was “high polyreactivity”.
In the case of “QVQLVESGGGLVQAGGSLRLSCAASGITFYIYAMGWYRQAPGKERELVAAISDDGSTHYADSVKGRFTISRDNAKNTVYLHMNSLKPEDTAVYYCNADYYWFFDFFDYDYWGQGTQVTVSS”, the “polyreactivity (PSR sort gate)” value is reported as “low polyreactivity”.
For “QVQLGESGGGLVQAGGSLRLSCAASGRTFDYYAMGWYRQAPGKEWQLVAAISGSGGTTYYADSVKGRFTISRENAKNTVYLQMNSLKAEDTAVYNCDTVRSRLFGQYYYWGQCTQVTVSS”, the “polyreactivity (PSR sort gate)” value was “high polyreactivity”.
For “QVQLVESGGGLVQAGGSLRLSCAASGSTFRYNTMGWYRQAPGKERELVAAISTSGGTTYYADSVKGRFTISRDNAKNTVYLQMNSLKPEDTAVYYCAARPFPRRWYGAEDYYWGQGTQVTVSS”, the “polyreactivity (PSR sort gate)” value was “high polyreactivity”.
With “QVHLVESGGRLVQAGGSLRLSCAASGRTVVDNAMGWYRQAPGKESQLVAAISSGGTTNFADSVKGRFTISRDIAKNTVYLQMNSLKPEDTAVFYCNTVATYLRSGYGNWGQGTQVTVSS” the “polyreactivity (PSR sort gate)” value was “low polyreactivity”.
For “QVQLVESGGGLVQAGGSLRLTSAASVSTFYNYAMVWYRQAPGKERELVASMTWNGGSTYYADSVKGRFTISRDNAKNTVDLQMTSLKPEDTAGSYCAAEYRDQYPTYPYYRPGYDYWGQGTQVTVSS”, the “polyreactivity (PSR sort gate)” value was “low polyreactivity”.
With “QVQLVESGGGLVQAGGSLRLSCAASGTYFGYAMGWYRQAPGKETELVAAITSGGSTYYADSVKGRFTISRDNAKNTVYLQMNSLKPEDTADYYCARVYSRWSYRYDYWGQGSQVTVSS” the “polyreactivity (PSR sort gate)” value was “low polyreactivity”.
With “QVQLVESGGGIVQEGGSLRLSCAASGRTFGLNVMGWYRQAPGKERELVATISWSGGTTYYADSVKGRYTISRDNAKNTVYFQMKSLKPEDTGVYYCNRQVTWYPTGGYWGQGTQVTVSS” the “polyreactivity (PSR sort gate)” value was “low polyreactivity”.
In the case of “QVQLVESGGGLVQAGGSLRLSCAASGFIFRRYVMGWYRQAPGKERELVAAISYGGGSTYYADSVKGRFTISRDNAKNTVYLQMNSLKPEDTAVYYCAARVYYDAYDYWGQGTQVTVSS”, the “polyreactivity (PSR sort gate)” value is reported as “high polyreactivity”.
With “QVQLVESGGGLVQAGGSLRLSCAASGPTFDYNAMGCYRPAPGKERELVAAIRFGGGSTYYADSVKGRFTISRDNAKNTVYFQINSLKPEDTAVYYCNASPLWIGWVIVPVGSSHYDYWGQGTQVTVSS” the “polyreactivity (PSR sort gate)” value was “low polyreactivity”.
For “QVQLVESGGGLVQAGGSLRLSCAASGRIFGHYTMGWYRQAPGKERELVAAISWGGVRTYYADSVKGRFTISRDNAKNTVYLQMNSLKPEVTAVYYCAARWRRYVYPDGHLFWYDYWGQGTQVTVSS”, the “polyreactivity (PSR sort gate)” value was “high polyreactivity”.
With “QVQLEESGGGLVQAGGSLRLSCAASGRIFYTYVMGWYRQAPEKERELVAAITGGGSKYYAYSVKGRFTISRDNAKNTVYLQMNSLKPEDTAVSYCAKRSYGDRDERYDSWGQGTQVTVSS” the “polyreactivity (PSR sort gate)” value was “low polyreactivity”.
For “QVHLVESGGGLVQAGGSLRLSCAASGRIFGRNAMGWYRQAPGKERELVAAISKRGGSTSYADSVKGRFTISRDNAKNTVYLQMNSLKPEDTAVYYCATSAPLVTSSGYGYWGHGTQVTVSS”, the “polyreactivity (PSR sort gate)” value was “high polyreactivity”.
For “QVQLVESGGGLVQAGGSLRLSCDASGSTFSPYAMRWYRQAPGKERELVAAINYSSGSTYYADSVKGRFTISRDNAKNTVYLQMNSLKPEDTAVYYCAYGWYAGYPYDYWGQGTQVTVSS”, the “polyreactivity (PSR sort gate)” value was “low polyreactivity”.
In the case of “QVQLVESGGSLVQAGGSLRLSCAASGYTIDSYGMGWYRQAPGKERELVAPIDWSGGSTYYADSVKGRFTIARDTAKNTVYLQKNSLIPDDSAVYYCNRDSAGPGDVILAYTGNDYWGQGTQVTVSS”, the “polyreactivity (PSR sort gate)” value is reported as “low polyreactivity”.
With “QVQLVESGGGLVQAGGSLRLSCAASGRTFRYYAMGWYRQAPGKERELVAAITSGGSTNYADSVKGRFTISRDNAKNTVYLQMNSLKPEDTAVYYCAAYWRSRNRFFWGQGTQVTVSS” the “polyreactivity (PSR sort gate)” value was “high polyreactivity”.
With “QVQLVESGGGLVQAGGSLRISSAASGRMLYSYAMGWYRQAPGKESEFVAAIRRSGGSTYYADSVKGRFTISRDNAKNTVYLQMNSLKPEDTAFYYCAAGRRYSGSYDYWGQGTQVTVSS” the “polyreactivity (PSR sort gate)” value was “high polyreactivity”.
With “QVQLVESGGGLVQSVGSLRLSCAASGFTFRWYAMGWYRQAPGKERELVAAITSRGGTTYYADSVKGRFTISRDNAKNTVYLQMNSLNPEDTAVYYCAARRAGRRGYYYWGQGTQVTVSS” the “polyreactivity (PSR sort gate)” value was “high polyreactivity”.
For “QVQLVESGGGLVQAGGSLRLSCAASGYIFGRNAMGWYRQAPGKEREFVAAISYSGSSTYYADSVKGRFTISRDNAKNTVYLQMNSLKPEDTAVYYCNAVYYRSRFGTSIRYDYWGQGTQVTVSS”, the “polyreactivity (PSR sort gate)” value was “high polyreactivity”.
In the case of “QVQLVESGGGLVQAGGSLRLSCAAYGITFGANAMGWYRQAPGKERELVADITWSGGDTYYADSVKGRFTISRDNAKYTVYLQMTSLIPEDTAVYYCNALQPGLGSPLGEYDFWGQGTQVTVSS”, the “polyreactivity (PSR sort gate)” value is reported as “low polyreactivity”.
For “QVQLVESGGGLVQAGGSLRVSCAASGFSFKYYAMGWYRQAPGKERELVAAITKRGGSTYYADSVKGRFTISRDNAKNTVYLQLNSLIPEDTAVYYCAADGRAYERYDYRSDYWGQGSQVTVSS”, the “polyreactivity (PSR sort gate)” value was “high polyreactivity”.
In the case of “QVQLVESGGGLVQAGGSLRLSCAASGSIFAAYTMGWYRQAPGNERELVAAISVSTVSTYYADSVKGRFTISRDNAKNTVYLQMNSLKPEDTAVYYCNADATDSYPEKDEHESWGQGTQVTVSS”, the “polyreactivity (PSR sort gate)” value is reported as “low polyreactivity”.
With “QVQLVESGGGLVQAGGSLRLSCAASGSIFPYYAMGWYRPAPGKERELVAAISSGGSTNYADSVKGRFTISRDNAKNTVYLEMNSLKPEDTAVYYCAARWSRLFRHRVNYWYDYWGQGTQVTVSS” the “polyreactivity (PSR sort gate)” value was “high polyreactivity”.
For “QVQLVESGGGLVQAGGSLRLSCAASGSTFYSNAMGWYRQAPGKERELVAAISRRGSSTYYADSVKGRFTISRDNAKNTVYLQMNSLKPEDTAVYYCNAVGTGGYSSEYGYWGQGTQVTVSS”, the “polyreactivity (PSR sort gate)” value was “high polyreactivity”.
With “QVQLVESGGGLVQAGGSLRLSCAASGYTFKTYPMGSYRQAPGKERELVAAISGSGGSTYYADSVKVRFTISRDNAKNTVYLQMNSLNPEDTAVYYCNASPTTTPNFWRYDYWGQGTQVTVSS” the “polyreactivity (PSR sort gate)” value was “high polyreactivity”.
With “QVQLVESGGGLVQAGGSLRLSCSASGRTFYHYTMGRYIQAPGKERELVAAITSGGSTYYADSVKGRFPISRDNAKNTVYLQMNSLKPEDTAVYYCARVRPLYHYSRYDYWGQGTQVTVSS” the “polyreactivity (PSR sort gate)” value was “high polyreactivity”.
In the case of “QVQLVESGGGLVQAGGSLRLICAASGNTLIVNAMGWYRQAPGKERELVAAITRDGRTNYADSVKGRFTISRDNAKNTVYLQMNSLKPEDTAVYYCAARLAQSTGYGYWGQGTQVTVSS”, the “polyreactivity (PSR sort gate)” value is reported as “low polyreactivity”.
In the case of “QVQLVESGGGLVQAGGSLRLSCAASGSIFRSYAMGWYRQAPGKEREFVAAINSRSGSTYYADSVKGRFTISRDNAKNTVYFQINSLKPEDTAVYYWAVTYYTRGYGHMDYWGQGTQVTVSS”, the “polyreactivity (PSR sort gate)” value is reported as “high polyreactivity”.
For “QVQLVESGGGLVQAGGSLRLSCAASGFILGHNAMGWYRQAPGKERELVSAITWRGRTYYADSVKGRFTISRDNAKNTVYLHMNSLKPEDTAVYYCASDTKFCYGYWGQGTQVTVSS”, the “polyreactivity (PSR sort gate)” value was “high polyreactivity”.
In the case of “QVQLVESGGGFVQAGGSLRLSCAASGSTFSVYAMGWYRQAPGKERELVATIRRGGSTYADSVKGRFTISRDNAKNTVYLQMNSLKPEDTAVYDCAADAYVSSQPMDYWGQGTQVTVSS”, the “polyreactivity (PSR sort gate)” value is reported as “high polyreactivity”.
In the case of “QVQLVESGGGLVQAGGSLRLSCAPSGRNFTYYDMGRYRQAPGKEREFVAVISDNDSSTYADSVKGRFTISPDNAKNTVYLQMNRLKPEDTAVYYCNAYRQYRSWRYDYWGQGTQVTVSS”, the “polyreactivity (PSR sort gate)” value is reported as “high polyreactivity”.
For “QVQLVESGGGLVQAGGSLRLSCAASGSTFGVYAMGWYRQAPGKERELVAAISWSSGSTYYADSVKGRFTISRDNAKNTVYLQLNSLKPEDTAVYYCNKDVYGYYRTGPRGYDYWGQGTQVTVSS”, the “polyreactivity (PSR sort gate)” value was “high polyreactivity”.
For “QVQLVESGGGLVQAGGSLRLSCAASGSTFYYNAMGWYRQAPGKERELVAAITWGGGSTYYADSVKGRFTISRDNAKNTVYLQMNSLKPEDTAVYYCNAEDYVWYYYYYDIYDYWGQGTQVTVSS”, the “polyreactivity (PSR sort gate)” value was “high polyreactivity”.
In the case of “QVQLVESGGGLVQAGGSLRLSCAASGSILDYYVMGWYRQAPGKERELVAAIRGGGSTYYADSVKGRFTISRDNEKNTVYLQMNRMKREDTAVNYCAAAVYGSYTTYGYFEHYFWGQGTQVTVSS”, the “polyreactivity (PSR sort gate)” value is reported as “low polyreactivity”.
For “QVQLVESGGGLVQAGGSLRLSCAASGRIFAAYAMGWYRQAPGKERELVAAITWDGDSTYYADSVKGRFTISRDNAKNTVYLQMNSLKPEDTAVYYCAAYWSTWYDWGQGTQVTVSS”, the “polyreactivity (PSR sort gate)” value was “high polyreactivity”.
In the case of “QVQLVESGGGLVQAGGSLRLSCAASGRIFAKNTMGWYRQAPGKERELVAAITWSSGNTDYADSVKGRFTISRDNAKNTVYLQMNSLKPEDTAVYYCAAYPRWTYWGYVERYYWGQGTQVTVSS”, the “polyreactivity (PSR sort gate)” value is reported as “high polyreactivity”.
For “QVQLVESGGGLVQAGGSLRLSCAASGSISFLYTMGWYRQAPGKERELVAAITGSTASTYYADSVKGCFTISRDNAKNTVYLQMNSLKPEDTAVYYCAAYWYAEGYWVSRDYWGQGTQVTVSS”, the “polyreactivity (PSR sort gate)” value was “low polyreactivity”.
With “QVQLVESGGGLVQAGGSLRLSCAASGRTFRYYTKGWYRQAPGKERELVAAITYSGGSTYYADSVKGRFTISRDNAMNTVYLQMNSLKPVDTAVYYCAAKASGNYYYYWGQGTQVTVSS” the “polyreactivity (PSR sort gate)” value was “high polyreactivity”.
With “QVQLVESGGGLVQAGGSLRLSCAASGIIFRGNAMGWYRQAPGKERELVAAISSGGSTYYADSVKGRFTISRDNAKNRVYLQMNSLKPEDTAVYYCNARWYYWGTLYGSWGHGTQVTVSS” the “polyreactivity (PSR sort gate)” value was “high polyreactivity”.
For “QVHLVESGGGLVQAGGSLRLSCAASGRIFNWYVMGWYRQAPGKERELVAAITSGGITKYADSVKGRFTISRDNAKNTVYLQMNSLKPEDTAVYYCAAYYRRYDYDYWGQGSQVTVSS”, the “polyreactivity (PSR sort gate)” value was “high polyreactivity”.
In the case of “QVQLVDSGGGLVQAGGSLRLSCASSGIIFGYYAMGWYRPAPGKERELVAGITYRTGSTDYADSVKGRFTISRDNAKNTVYFQMNSLKPEDTAVYFCAATQDKRKYSSCYYYWGQGTQVTVSS”, the “polyreactivity (PSR sort gate)” value is reported as “high polyreactivity”.
With “QVQLVESAGGLVQAGGSLRLSCAASGGIFVFYAMGWYRQAPGKERELVAAITYRGGSTSYADSVKGRFTISRDHAKNTVYLQLNSVKPEDTAVYYCAAAFYAKGQRYGYWGHGTQVTVSS” the “polyreactivity (PSR sort gate)” value was “high polyreactivity”.
